In patent publication US9051356 one finds binding activity, percent higher than that of the same antibody isolated from CHOdhfr- cells data, which are given here for one substance.

In the experiment the target is synthetic glycosylated MUC1 30-mer peptide …[GalNAcalpha]…. Kind of experiment: ELISA on plate-coated glycosylated MUC1 30-mer peptide, antibody 1-400 ng/ml, anti-human Fcgamma1-peroxidase detection.
synthetic glycosylated MUC1 30-mer peptide …[GalNAcalpha]…, sequence (peptide, as listed by the source): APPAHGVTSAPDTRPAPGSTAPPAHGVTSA

“chimeric PankoMab isolated from NM-F9 cells (antibody)” returned a binding activity, percent higher than that of the same antibody isolated from CHOdhfr- cells of 50%.
